From patent US9283300B2, “Use of midkine protein and the protein-containing medical device” (GENERAL REGENERATIVES, LTD, priority 2009, dated 2016)
Several values for one entry are separate records, joined by “and”; a condition that tells them apart may be missing. Identical values can stand only once.

How the values were obtained:
[1] = system: full-thickness defect of rabbit knee articular cartilage; assay: Full-thickness cartilage defect of rabbit knee joint, intra-articular rhMK; type: in vivo, New Zealand white rabbits; details: rabbit knee full-thickness cartilage damage model, 18 samples, 13 recovered; no recovery in saline control sides, P<0.01
Description: Method. 2-month-old male New Zealand white rabbits (2.0˜2.5 kg weight) were anesthetized with 3% pentobarbital sodium (30 mg/kg) by ear vein injection. After anesthesia, prepare the skin on both sides of the knees were prepared for sterilization. With conventional surgical sterilization and under sterile conditions, the inner side of knees was cut to expose the femoral condyle surface. The full-thickness cartilage injury was made on the femoral condyle surface for both sides of the rabbit knees using an electrical drill. The cartilage hole was 3 mm in diameter and 4 mm in depth. The wound was closed with 4-0 lines. 400,000 units penicillin was injected daily for one week to prevent the wound site infection. 24 hours after surgery, normal saline or rhMK was injected into the knee articular cavity. The injection volume was 0.5 ml, three times a week for 2 weeks. rhMK was injected into one side of the rabbit knee joint, the other side was injected with saline as control. The rabbits were kept in cages and moved freely without fixation of the injured knees. After 2, 4, 6 and 12 weeks, rabbits were sacrificed. Cartilage tissues of the knee joint were removed for routine biopsy. The tissue sections were prepared for H&E, and fast green—Safranin O staining. The histological observation and evaluation were conducted under microscope.

[2] = system: rat primary auricular (ear elastic cartilage) chondrocyte; assay: MTT proliferation assay, primary chondrocytes in monolayer; type: cell-based; details: for light absorbance at 490 nm in MTT assay: Auricular chondrocyte, 48 h, mean ± SD
Description: (§1) 1. Preparation of primary chondrocyte. The 8-week-old male SD rats were sacrificed under sterile conditions. The articular cartilage, fibrocartilage and elastic cartilage tissue were isolated from the femur joints, meniscus and outer ear respectively using a scalpel. The isolated cartilage were cut into small pieces, washed twice with phosphate buffered saline (PBS), and digested with trypsin (0.25% (w/v) trypsin/0.02% (w/v) EDTA) at 37° C. for 30 min. The articular cartilage and elastic cartilage were further digested with 0.2% type II collagenase for additional 16 h, and the fibrocartilage were further digested with 0.15% type I collagenase for additional 16 h. After digestion, three chondrocytes were passed through 100 μm filter (Falcon, USA) into 15 ml centrifuge tubes, centrifuged at room temperature at 2000 rpm for 5 min. Cells were resuspended in DMEM containing 10% FBS (fetal bovine serum). Trypan blue staining of the freshly isolated cells was used to monitor the percentage of live cells under the microscope. When the number of live cells is more than 95%, it was used for subsequent experiments.
(§2) 2. MTT assay. Three types of primary chondrocytes were suspended at a density of 5×10^4 cells/ml in DMEM containing 10% FBS. Cells were seeded into a 96-well plate (100 μl per well) and cultured at 37° C. under 5% CO2 for 48 h. The cells were washed with serum-free DMEM medium once. Different concentrations of rhMK (0.5, 1.0, 3.0, 5.0, 9.0 μg/ml) in DMEM (containing 0.5% FBS) were added to each well and the cells were cultured for additional 48 h. After incubation, the medium was replaced with 100 μl serum-free DMEM medium and 20 μl MTT solution (0.5 mg/ml, in PBS), incubated at 37° C. under 5% CO2 for 4 h. After removing the liquid, 120 μl DMSO was added to dissolve the MTT crystals by shaking for 1 min on a micro-plate oscillator. Light absorbance at 490 nm was measured using a microplate reader (BIO-TEK, USA).

[3] = system: rat primary articular chondrocyte; assay: as above; type: cell-based; details: for light absorbance at 490 nm in MTT assay: Articular chondrocyte, 48 h, mean ± SD
Description: as §1, §2

[4] = system: rat primary fibrochondrocyte; assay: as above; type: cell-based; details: for light absorbance at 490 nm in MTT assay: Fibrochondrocyte, 48 h, mean ± SD
Description: as §1, §2

rat fibrochondrocyte = assay: Cell expansion in passaged monolayer culture; type: cell-based
Description: as §1
(§3) 3. Culture of primary chondrocytes in monolayer. Three types of primary chondrocytes were suspended in DMEM medium containing 10% FBS, adjusted to 5×10^4 cells/ml, added to 6-well plate with 2 ml medium/well, and incubated in 37° C. at 5% CO2. Experiment was divided into two groups: control group and experimental group (with 3 μg/ml rhMK). Cell medium was changed every two days. When the cells grew to the confluence of 85% to 90%, the cells were collected by trypsin digestion, washed in PBS by centrifugation. The cells were resuspended in DMEM containing 10% FBS. Cell survival was monitored by trypan blue staining. Part of the cells were used for cell passage; some were for RNA extraction; some were cytospined onto a glass slide for later immunohistochemical staining and the slides were stored at −80° C. Primary cells or passage 0 (P0) were cultured for 7 days. The newly passaged cells were further cultured in a 6-well plate for 3 days which was then collected by trypsin-digestion and marked as passage P1. The cell amplification at each passage=total number of cells at output/total number of cells at initial input.

[5] = system: rat auricular chondrocyte; assay: Cell expansion in passaged monolayer culture; type: cell-based
Description: as §1, §3

[6] = system: rat articular chondrocyte; assay: Cell expansion in passaged monolayer culture; type: cell-based
Description: as §1, §3

rat primary chondrocytes = assay: Serum-free culture of chondrocytes; type: cell-based; details: for promotion of cell expansion over the control cultures without rhMK: serum-free medium after 24 h in DMEM with 10% FBS
Description: as §1
4. Serum-free culture. The primary chondrocytes were cultured with DMEM containing 10% FBS for 24 h and washed with serum-free culture medium once. The cells were further cultured with DMEM medium with ITS+1 (composed of insulin-transferrin-selenium, Sigma, USA). […] Cell medium was changed every two days. When cells grew to the confluence of 85% to 90%, they were collected by trypsin-digestion and subcultured as previously described.

[7] = P0, rhMK 3 μg/ml versus no rhMK
[8] = P1, rhMK 3 μg/ml versus no rhMK
[9] = P2, rhMK 3 μg/ml versus no rhMK

B1: rhMK: recombinant human midkine mature protein (SEQ ID NO.1) expressed in E. coli and purified by ion-exchange chromatography (protein, listed as Homo sapiens)
chain: MKKKDKVKKGGPGSECAEWAWGPCTPSSKDCGVGFREGTCGAQTQRIRCRVPCNWKKEFGADCKYKFENWGACDGGTGTKVRQGTLKKARYNAQCQETIRVTKPCTPKTKAKAKAKKGKGKD
rate of recovery in the rhMK treated side [1]: 72.2%
light absorbance at 490 nm in MTT assay ([2]; rhMK 0.5 μg/ml): 0.52 ± 0.05
light absorbance at 490 nm in MTT assay ([2]; rhMK 1.0 μg/ml): 0.54 ± 0.02
light absorbance at 490 nm in MTT assay ([2]; rhMK 3.0 μg/ml): 0.56 ± 0.01
light absorbance at 490 nm in MTT assay ([2]; rhMK 5.0 μg/ml): 0.56 ± 0.02
light absorbance at 490 nm in MTT assay ([2]; rhMK 9.0 μg/ml): 0.56 ± 0.02
lowest effective dose of rhMK (proliferation, MTT) ([2]; ear elastic cartilage cells, monolayer): 0.5 µg/mL
light absorbance at 490 nm in MTT assay ([3]; rhMK 0.5 μg/ml): 0.33 ± 0.02
light absorbance at 490 nm in MTT assay ([3]; rhMK 1.0 μg/ml): 0.40 ± 0.01
light absorbance at 490 nm in MTT assay ([3]; rhMK 3.0 μg/ml): 0.38 ± 0.01
light absorbance at 490 nm in MTT assay ([3]; rhMK 5.0 μg/ml): 0.30 ± 0.01
light absorbance at 490 nm in MTT assay ([3]; rhMK 9.0 μg/ml): 0.39 ± 0.01
lowest effective dose of rhMK (proliferation, MTT) ([3]; articular chondrocytes, monolayer): 1 µg/mL
light absorbance at 490 nm in MTT assay ([4]; rhMK 0.5 μg/ml): 0.42 ± 0.02
light absorbance at 490 nm in MTT assay ([4]; rhMK 1.0 μg/ml): 0.43 ± 0.02
light absorbance at 490 nm in MTT assay ([4]; rhMK 3.0 μg/ml): 0.47 ± 0.00
light absorbance at 490 nm in MTT assay ([4]; rhMK 5.0 μg/ml): 0.45 ± 0.00
light absorbance at 490 nm in MTT assay ([4]; rhMK 9.0 μg/ml): 0.45 ± 0.00
lowest effective dose of rhMK (proliferation, MTT) ([4]; fibrochondrocyte, monolayer): 3 µg/mL
Cell expansion (in fold) (rat fibrochondrocyte; P0, rhMK 3 μg/ml): 5.3 ± 1.3 fold
Proliferation rate (%) (rat fibrochondrocyte; [7]): 112% and 110%
Cell expansion (in fold) (rat fibrochondrocyte; P1, rhMK 3 μg/ml): 28.1 ± 3.4 fold
Proliferation rate (%) (rat fibrochondrocyte; [8]): 51%
Cell expansion (in fold) (rat fibrochondrocyte; P2, rhMK 3 μg/ml): 20.9 ± 0.9 fold
Proliferation rate (%) (rat fibrochondrocyte; [9]): 35%
Cell expansion (in fold) ([5]; P0, rhMK 3 μg/ml): 7.9 ± 0.1 fold
Proliferation rate (%) [5, 7]: 65%
Cell expansion (in fold) ([5]; P1, rhMK 3 μg/ml): 16.1 ± 1.1 fold
Proliferation rate (%) [5, 8]: 66%
Cell expansion (in fold) ([5]; P2, rhMK 3 μg/ml): 8.2 ± 1.0 fold
Proliferation rate (%) [5, 9]: 55%
Cell expansion (in fold) ([6]; P0, rhMK 3 μg/ml): 13.5 ± 1.2 fold
Proliferation rate (%) [6, 7]: 112%
Cell expansion (in fold) ([6]; P1, rhMK 3 μg/ml): 12.0 ± 1.4 fold
Proliferation rate (%) [6, 8]: 74%
Cell expansion (in fold) ([6]; P2, rhMK 3 μg/ml): 11.5 ± 0.5 fold
Proliferation rate (%) [6, 9]: 48%
promotion of cell expansion over the control cultures without rhMK (rat primary chondrocytes; passage 1): 34%
promotion of cell expansion over the control cultures without rhMK (rat primary chondrocytes; passage 2): 51%
promotion of cell expansion over the control cultures without rhMK (rat primary chondrocytes; passage 3): 18%
cell attachment and proliferation in serum-free medium (rat primary chondrocytes; three types of chondrocytes cultured directly in serum-free medium, rhMK 3 μg/ml): did not make the cell attachment and proliferation
